Data published in publication PMC4150794, “Homodimerization of RBPMS2 through a new RRM-interaction motif is necessary to control smooth muscle plasticity” (Nucleic Acids Research, 2014).

Target: the molecule itself
Assay: SEC-MALS; Superdex 75 10/300, 20 mM Tris-HCl pH 8, 300 mM NaCl; loaded at 2 mg/ml (RBPMS2-Nter) or 4 mg/ml (RBPMS2-Nter-L49E); monomer to dimer

B1: RBPMS2-Nter (human RBPMS2 residues 27-117, RRM domain) (domain or fragment)
chain: not shown
notes: 15N- or 15N/13C-labelled for NMR; also called pET22-RBPMS2-Nter; RRM domain of RBPMS2; source: E. coli BL231DE3 (so in the source), purified (His Trap FF)
- stoichiometry N: 2
